Molecular target: wild-type PlaF (phospholipase A1 PlaF, PA2949) from Pseudomonas aeruginosa (Pseudomonas aeruginosa)
Experiment: cross-linking

Substance: wild-type PlaF (phospholipase A1 PlaF, PA2949) from Pseudomonas aeruginosa (enzyme)
- more dimer in the C10-treated sample than in the untreated one: 70%
- stoichiometry N: 2

Reference: article PMC10976570
